Experimental data taken from patent US7935795 (EVEC, dated 2011).

Target: T1, recombinant human granulocyte-macrophage colony stimulating factor (hGM-CSF) (human, UniProt P04141 18-144)
T1 construct: also called recombinant GM-CSF; recombinant hGM-CSF
Assay: BIAcore, antibody immobilised on sensor chip, recombinant hGM-CSF as analyte
Procedure: Affinity analysis was conducted on the anti-hGM-CSF antibody applying BIAcore® system (FIG. 4). In the method, the antibody (purified antibody) was immobilized to a sensor chip, and then an antigen (recombinant) was added to the surface of the immobilized antibody, so that the interaction between antibody and an antigen was measured. A purified antibody was applied to the antibody, and a recombinant hGM-CSF was applied to the antigen. A mouse anti-GM-CSF monoclonal antibody (commercially available) (R&D) was applied to a positive control, and a purified anti-human cytomegalovirus monoclonal antibody was applied to a negative control. After the analysis, it turned out that antigen-antibody interaction was not detected in the negative control. In the positive control, dissociation constant of 6.1×10^-9 M is shown as the affinity. The affinity of the anti-GM-CSF antibody obtained was 2.1×10^-10 M (FIG. 5).

T1 sequence (P04141 18-144 limits assumed): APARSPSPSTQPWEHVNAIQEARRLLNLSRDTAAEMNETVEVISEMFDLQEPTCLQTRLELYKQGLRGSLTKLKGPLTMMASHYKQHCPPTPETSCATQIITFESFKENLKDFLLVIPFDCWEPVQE

- Kd: 0.21 nM
B1: anti-hGM-CSF human monoclonal antibody J158 4C (antibody, human IgG1, kappa, V domains shown)
VH: LVQLVQSEAEVKKPGASVRISCRTSGYIFPTFALHWVRQAPGQSLEWVGSINTASGKTKFSTKFQDRLTLSSNTSATTVYMDLSGLTLDDTALYYCARDRFQNIMATILDVWGQGTLVTVSS
VL: DIVLTQSPGTLSLSPGERVTVSCRASHRVSSNYLAWYQQRPGQSPRLLIFGASNRATGVPDRFSGSGSGTDFALTISRLEPDDFAVYYCQQYASSPVTFGGGTKLEIKR
notes: also called anti-hGM-CSF antibody; anti-GM-CSF antibody
